One block for each binder: values may come before it. Positions of bridges follow the written chain, without caps; N, C: chain ends. Non-standard residues stand in square brackets, D forms with d. dPhe(3,4,5-F3) = N[C@H](Cc1cc(F)c(F)c(F)c1)C(=O)O; dPhe(2-CF3) = N[C@H](Cc1ccccc1C(F)(F)F)C(=O)O; dPhe(3,5-F2) = N[C@H](Cc1cc(F)cc(F)c1)C(=O)O; dPhe(4-CN) = N#Cc1ccc(C[C@@H](N)C(=O)O)cc1; dPhe(3-Cl) = N[C@H](Cc1cccc(Cl)c1)C(=O)O; dPhe(3-Me) = Cc1cccc(C[C@@H](N)C(=O)O)c1; dPhe(2-Cl) = N[C@H](Cc1ccccc1Cl)C(=O)O; dPhe(2-Me) = Cc1ccccc1C[C@@H](N)C(=O)O; dPhe(2-F) = N[C@H](Cc1ccccc1F)C(=O)O; Orn = NCCC[C@H](N)C(=O)O
Tests used:
[1] = target: T1, human melanocortin-4 receptor (human, UniProt P32245 1-332); experiment: cell-based or functional assay
[2] = target: T1, human melanocortin-4 receptor; experiment: [I125]-NDP-α-MSH competition, hMC4-R HEK-293 membranes
Protocol: A competitive inhibition binding assay was performed for exemplified peptides according to the invention using membrane homogenates prepared from HEK-293 cells that express recombinant hMC4-R, hMC3-R, or hMC5-R, and from B-16 mouse melanoma cells (containing endogenous MC1-R). In some instances, HEK-293 cells that express recombinant hMC1-R were employed. Assays were performed in 96 well GF/B Millipore multiscreen filtration plates (MAFB NOB10) pre-coated with 0.5% bovine serum albumin (Fraction V). […] After incubation for 60 minutes at 37° C., the assay mixture was filtered and the membranes washed three times with ice-cold buffer. Filters were dried and counted in a gamma counter for bound radioactivity. […] Each assay was conducted in triplicate and the actual mean values are described, with results less than 0% reported as 0%. Ki values for test peptides of the present invention were determined using Graph-Pad Prism® curve-fitting software.

T1 sequence (P32245 whole entry): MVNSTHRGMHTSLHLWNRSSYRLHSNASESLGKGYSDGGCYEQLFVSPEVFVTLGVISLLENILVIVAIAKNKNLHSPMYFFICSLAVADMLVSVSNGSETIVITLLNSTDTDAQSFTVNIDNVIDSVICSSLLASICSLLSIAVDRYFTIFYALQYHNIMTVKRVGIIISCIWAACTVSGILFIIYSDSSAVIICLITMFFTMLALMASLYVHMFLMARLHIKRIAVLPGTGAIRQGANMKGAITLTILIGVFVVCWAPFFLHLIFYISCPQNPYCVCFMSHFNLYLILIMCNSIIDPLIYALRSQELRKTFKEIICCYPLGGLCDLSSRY

- EC50, cAMP, 10 ng/mL Doxycycline [1]: 1 nM
- Intrinsic Activity, cAMP, 0.1 ng/mL Doxycycline [1]: 8%
- Intrinsic Activity, cAMP, 10 ng/mL Doxycycline [1]: 89%
- Ki [2]: 6 nM
B1: Ac-Arg-cyclo(Glu-Thr-D-Phe(3-Cl)-Arg-Trp-Orn)-NH2 (peptide)
peptide: Ac-RET[dPhe(3-Cl)]RW[Orn]-NH2
modifications: lactam 2-7
SMILES: CC(=O)N[C@@H](CCCNC(=N)N)C(=O)N[C@H]1CCC(=O)NCCC[C@@H](C(N)=O)NC(=O)[C@H](Cc2c[nH]c3ccccc23)NC(=O)[C@H](CCCNC(=N)N)NC(=O)[C@@H](Cc2cccc(Cl)c2)NC(=O)[C@H]([C@@H](C)O)NC1=O
notes: also called No. 36

- EC50, cAMP, 10 ng/mL Doxycycline [1]: 269 nM
- Intrinsic Activity, cAMP, 0.1 ng/mL Doxycycline [1]: 2%
- Intrinsic Activity, cAMP, 10 ng/mL Doxycycline [1]: 69%
- Ki [2]: 1090 nM
B2: Ac-Arg-cyclo(Glu-Glu-D-Phe(4-CN)-Arg-Trp-Orn)-OH (peptide)
peptide: Ac-REE[dPhe(4-CN)]RW[Orn]-OH
modifications: lactam 2-7

- EC50, cAMP, 0.1 ng/mL Doxycycline [1]: 6 nM
- EC50, cAMP, 10 ng/mL Doxycycline [1]: 0.27 nM
- Intrinsic Activity, cAMP, 0.1 ng/mL Doxycycline [1]: 27%
- Intrinsic Activity, cAMP, 10 ng/mL Doxycycline [1]: 93%
- Ki [2]: 4 nM
B3: Ac-Arg-cyclo(Glu-Lys-D-Phe(3-Cl)-Arg-Trp-Orn)-NH2 (peptide)
peptide: Ac-REK[dPhe(3-Cl)]RW[Orn]-NH2
modifications: lactam 2-7
SMILES: CC(=O)N[C@@H](CCCNC(=N)N)C(=O)N[C@H]1CCC(=O)NCCC[C@@H](C(N)=O)NC(=O)[C@H](Cc2c[nH]c3ccccc23)NC(=O)[C@H](CCCNC(=N)N)NC(=O)[C@@H](Cc2cccc(Cl)c2)NC(=O)[C@H](CCCCN)NC1=O
notes: also called No. 100

- EC50, cAMP, 10 ng/mL Doxycycline [1]: 0.35 nM
- Intrinsic Activity, cAMP, 0.1 ng/mL Doxycycline [1]: 15%
- Intrinsic Activity, cAMP, 10 ng/mL Doxycycline [1]: 89%
- Ki [2]: 5 nM
B6: Ac-Arg-cyclo(Glu-Pro-D-Phe(2-Cl)-Arg-Trp-Orn)-NH2 (peptide)
peptide: Ac-REP[dPhe(2-Cl)]RW[Orn]-NH2
modifications: lactam 2-7
SMILES: CC(=O)N[C@@H](CCCNC(=N)N)C(=O)N[C@H]1CCC(=O)NCCC[C@@H](C(N)=O)NC(=O)[C@H](Cc2c[nH]c3ccccc23)NC(=O)[C@H](CCCNC(=N)N)NC(=O)[C@@H](Cc2ccccc2Cl)NC(=O)[C@@H]2CCCN2C1=O
notes: also called No. 88

- EC50, cAMP, 10 ng/mL Doxycycline [1]: 0.5 nM
- Intrinsic Activity, cAMP, 0.1 ng/mL Doxycycline [1]: 9%
- Intrinsic Activity, cAMP, 10 ng/mL Doxycycline [1]: 84%
- Ki [2]: 6 nM
B9: Ac-Arg-cyclo(Glu-Val-D-Phe(4-CN)-Arg-Trp-Orn)-NH2 (peptide)
peptide: Ac-REV[dPhe(4-CN)]RW[Orn]-NH2
modifications: lactam 2-7
notes: also called No. 42

- EC50, cAMP, 0.1 ng/mL Doxycycline [1]: 3 nM
- EC50, cAMP, 10 ng/mL Doxycycline [1]: 0.35 nM
- Intrinsic Activity, cAMP, 0.1 ng/mL Doxycycline [1]: 11%
- Ki [2]: 4 nM
B11: Ac-Arg-cyclo(Orn-Asn-D-Phe(3-Me)-Arg-Trp-Glu)-NH2 (peptide)
peptide: Ac-R[Orn]N[dPhe(3-Me)]RWE-NH2
modifications: lactam 2-7
notes: also called No. 72

Further lines, the binder ahead of its results:

B4: Ac-Arg-cyclo(Glu-Asn-D-Phe(2-Me)-Arg-Trp-Orn)-NH2 (peptide)
peptide: Ac-REN[dPhe(2-Me)]RW[Orn]-NH2
modifications: lactam 2-7
notes: also called No. 73
- EC50, cAMP, 0.1 ng/mL Doxycycline [1]: 0.587 nM
- EC50, cAMP, 10 ng/mL Doxycycline [1]: 0.068 nM
- Intrinsic Activity, cAMP, 0.1 ng/mL Doxycycline [1]: 86%
- Intrinsic Activity, cAMP, 10 ng/mL Doxycycline [1]: 102%
- Ki [2]: 4 nM

B5: Ac-Arg-cyclo(Glu-Asn-D-Phe(2-CF3)-Arg-Trp-Orn)-NH2 (peptide)
peptide: Ac-REN[dPhe(2-CF3)]RW[Orn]-NH2
modifications: lactam 2-7
notes: also called No. 116
- EC50, cAMP, 0.1 ng/mL Doxycycline [1]: 0.68 nM
- EC50, cAMP, 10 ng/mL Doxycycline [1]: 0.095 nM
- Intrinsic Activity, cAMP, 0.1 ng/mL Doxycycline [1]: 77%
- Intrinsic Activity, cAMP, 10 ng/mL Doxycycline [1]: 104%
- Ki [2]: 7 nM

B7: Ac-Arg-cyclo(Glu-Asn-D-Phe(3,5-diF)-Arg-Trp-Orn)-NH2 (peptide)
peptide: Ac-REN[dPhe(3,5-F2)]RW[Orn]-NH2
modifications: lactam 2-7
notes: also called No. 76
- EC50, cAMP, 0.1 ng/mL Doxycycline [1]: 3 nM
- EC50, cAMP, 10 ng/mL Doxycycline [1]: 0.135 nM
- Intrinsic Activity, cAMP, 0.1 ng/mL Doxycycline [1]: 53%
- Intrinsic Activity, cAMP, 10 ng/mL Doxycycline [1]: 85%
- Ki [2]: 20 nM

B8: Ac-Arg-cyclo(Glu-Asn-D-Phe(3,4,5-triF)-Arg-Trp-Orn)-NH2 (peptide)
peptide: Ac-REN[dPhe(3,4,5-F3)]RW[Orn]-NH2
modifications: lactam 2-7
notes: also called No. 95
- EC50, cAMP, 0.1 ng/mL Doxycycline [1]: 1 nM
- EC50, cAMP, 10 ng/mL Doxycycline [1]: 0.125 nM
- Intrinsic Activity, cAMP, 0.1 ng/mL Doxycycline [1]: 42%
- Intrinsic Activity, cAMP, 10 ng/mL Doxycycline [1]: 100%
- Ki [2]: 3 nM

B10: Ac-Arg-cyclo(Glu-Gln-D-Phe(2-F)-Arg-Trp-Orn)-NH2 (peptide)
peptide: Ac-REQ[dPhe(2-F)]RW[Orn]-NH2
modifications: lactam 2-7
notes: also called No. 59
- EC50, cAMP, 0.1 ng/mL Doxycycline [1]: 0.6 nM
- EC50, cAMP, 10 ng/mL Doxycycline [1]: 0.1 nM
- Intrinsic Activity, cAMP, 0.1 ng/mL Doxycycline [1]: 90%
- Intrinsic Activity, cAMP, 10 ng/mL Doxycycline [1]: 98%
- Ki [2]: 7 nM

B12: Ac-Arg-cyclo(Glu-Gln-D-Phe(4-CN)-Arg-Trp-Orn)-NH2 (peptide)
peptide: Ac-REQ[dPhe(4-CN)]RW[Orn]-NH2
modifications: lactam 2-7; also: acetate salt
notes: acetate salt form; also called Ex 46
- EC50, cAMP, 0.1 ng/mL Doxycycline [1]: 0.666 nM
- EC50, cAMP, 10 ng/mL Doxycycline [1]: 0.173 nM
- Intrinsic Activity, cAMP, 0.1 ng/mL Doxycycline [1]: 40%
- Intrinsic Activity, cAMP, 10 ng/mL Doxycycline [1]: 97%
- Ki [2]: 4 nM

— US20100311648A1 (AstraZeneca / MedImmune, published 2010)
